Read-outs that look alike come from different tables or passages of the source.
T1: DNA polymerase alpha catalytic subunit POLA1 (334-1462) (human, UniProt P09884 334-1462)
T1 sequence (looked up): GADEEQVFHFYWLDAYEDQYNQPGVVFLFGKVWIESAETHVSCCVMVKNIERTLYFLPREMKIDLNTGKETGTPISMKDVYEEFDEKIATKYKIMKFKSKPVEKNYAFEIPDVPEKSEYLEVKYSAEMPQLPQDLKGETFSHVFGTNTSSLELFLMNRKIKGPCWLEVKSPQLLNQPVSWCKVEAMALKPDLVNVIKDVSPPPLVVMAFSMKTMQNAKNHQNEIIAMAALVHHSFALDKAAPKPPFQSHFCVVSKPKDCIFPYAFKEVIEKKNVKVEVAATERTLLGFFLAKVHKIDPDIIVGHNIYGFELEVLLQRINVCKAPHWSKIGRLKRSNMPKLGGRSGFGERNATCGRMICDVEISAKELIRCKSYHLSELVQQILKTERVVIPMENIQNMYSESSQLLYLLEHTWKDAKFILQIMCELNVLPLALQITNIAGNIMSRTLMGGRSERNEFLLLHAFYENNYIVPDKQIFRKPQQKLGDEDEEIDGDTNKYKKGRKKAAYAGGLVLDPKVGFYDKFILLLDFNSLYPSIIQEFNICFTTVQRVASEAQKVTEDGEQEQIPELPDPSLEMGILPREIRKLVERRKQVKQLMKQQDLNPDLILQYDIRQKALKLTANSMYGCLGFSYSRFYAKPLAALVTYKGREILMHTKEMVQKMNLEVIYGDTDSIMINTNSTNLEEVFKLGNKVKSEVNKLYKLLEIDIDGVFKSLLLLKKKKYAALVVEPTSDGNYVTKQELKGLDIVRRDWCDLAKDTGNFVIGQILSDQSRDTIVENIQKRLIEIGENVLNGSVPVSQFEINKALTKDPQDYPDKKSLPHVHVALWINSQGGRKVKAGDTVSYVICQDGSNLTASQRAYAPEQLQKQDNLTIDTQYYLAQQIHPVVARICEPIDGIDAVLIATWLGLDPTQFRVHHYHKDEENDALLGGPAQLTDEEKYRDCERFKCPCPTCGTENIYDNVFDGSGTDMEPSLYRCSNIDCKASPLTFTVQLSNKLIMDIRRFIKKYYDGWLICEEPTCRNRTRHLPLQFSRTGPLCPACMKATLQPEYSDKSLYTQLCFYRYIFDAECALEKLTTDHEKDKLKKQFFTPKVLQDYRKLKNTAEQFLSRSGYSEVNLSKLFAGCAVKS

B1: primase regulatory subunit PRIM2 (1-509) (natural protein, human, UniProt P49643 1-509, looked up)
chain: MEFSGRKWRKLRLAGDQRNASYPHCLQFYLQPPSENISLIEFENLAIDRVKLLKSVENLGVSYVKGTEQYQSKLESELRKLKFSYRENLEDEYEPRRRDHISHFILRLAYCQSEELRRWFIQQEMDLLRFRFSILPKDKIQDFLKDSQLQFEAISDEEKTLREQEIVASSPSLSGLKLGFESIYKIPFADALDLFRGRKVYLEDGFAYVPLKDIVAIILNEFRAKLSKALALTARSLPAVQSDERLQPLLNHLSHSYTGQDYSTQGNVGKISLDQIDLLSTKSFPPCMRQLHKALRENHHLRHGGRMQYGLFLKGIGLTLEQALQFWKQEFIKGKMDPDKFDKGYSYNIRHSFGKEGKRTDYTPFSCLKIILSNPPSQGDYHGCPFRHSDPELLKQKLQSYKISPGGISQILDLVKGTHYQVACQKYFEMIHNVDDCGFSLNHPNQFFCESQRILNGGKDIKKEPIQPETPQPKPSVQKTKDASSALASLNSSLEMDMEGLEDYFSEDS

How the values were obtained:
Assay in all cases: cryo-EM structure
[1] = target: T1, DNA polymerase alpha catalytic subunit …
[2] = target: B1
[3] = target: T1, DNA polymerase alpha catalytic subunit …; remark: listed apart in the source

binding result [1]	binding result [2]	binding result [3]	Binder
binds	binds	–	primase catalytic subunit PRIM1 (1-420) (enzyme, human, UniProt P49642 1-420, looked up) METFDPTELPELLKLYYRRLFPYSQYYRWLNYGGVIKNYFQHREFSFTLKDDIYIRYQSFNNQSDLEKEMQKMNPYKIDIGAVYSHRPNQHNTVKLGAFQAQEKELVFDIDMTDYDDVRRCCSSADICPKCWTLMTMAIRIIDRALKEDFGFKHRLWVYSGRRGVHCWVCDESVRKLSSAVRSGIVEYLSLVKGGQDVKKKVHLSEKIHPFIRKSINIIKKYFEEYALVNQDILENKESWDKILALVPETIHDELQQSFQKSHNSLQRWEHLKKVASRYQNNIKNDKYGPWLEWEIMLQYCFPRLDINVSKGINHLLKSPFSVHPKTGRISVPIDLQKVDQFDPFTVPTISFICRELDAISTNEEEKEENEAESDVKHRTRDYKKTSLAPYVKVFEHFLENLDKSRKGELLKKSDLQKDF
binds	–	–	DNA polymerase alpha accessory B subunit POLA2 (149-598) (domain or fragment, human, UniProt Q14181 149-598, looked up) SSFSPSATPSQKYNSRSNRGEVVTSFGLAQGVSWSGRGGAGNISLKVLGCPEALTGSYKSMFQKLPDIREVLTCKIEELGSELKEHYKIEAFTPLLAPAQEPVTLLGQIGCDSNGKLNNKSVILEGDREHSSGAQIPVDLSELKEYSLFPGQVVIMEGINTTGRKLVATKLYEGVPLPFYQPTEEDADFEQSMVLVACGPYTTSDSITYDPLLDLIAVINHDRPDVCILFGPFLDAKHEQVENCLLTSPFEDIFKQCLRTIIEGTRSSGSHLVFVPSLRDVHHEPVYPQPPFSYSDLSREDKKQVQFVSEPCSLSINGVIFGLTSTDLLFHLGAEEISSSSGTSDRFSRILKHILTQRSYYPLYPPQEDMAIDYESFYVYAQLPVTPDVLIIPSELRYFVKDVLGCVCVNPGRLTKGQVGGTFARLYLRRPAADGAERQSPCIAVQVVRI
–	–	binds	B1

— paper doi:10.1101/2023.07.20.549859 (bioRxiv, 2023)
